Patent US20200377590A1 (Hoffmann-La Roche, published 2020)

T1: CD81 (UniProt P60033 1-236, limits assumed)
T1 construct: whole, on cells; also called CD81 receptor
T1 sequence (looked up): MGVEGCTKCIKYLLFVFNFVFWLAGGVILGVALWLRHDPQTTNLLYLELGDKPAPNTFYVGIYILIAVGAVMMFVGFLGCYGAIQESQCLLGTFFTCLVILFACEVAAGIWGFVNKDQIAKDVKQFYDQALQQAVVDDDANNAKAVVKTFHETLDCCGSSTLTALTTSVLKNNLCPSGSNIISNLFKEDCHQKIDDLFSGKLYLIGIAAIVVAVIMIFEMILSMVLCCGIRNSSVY

B1: CD81K13 HC 05-hVH_1_69 / LC 5b-hVK_1_39 (antibody, V domains shown)
VH: QVQLVQSGAEVKKPGSSVKVSCKASGFNFKDSYLHWVRQAPGQGLEWMGRIDTGNGNVKFDPKFQGRVTITTDESTSTAYMELSSLRSEDTAVYYCVPYGYGFHSWGQGTLVTVSS
VL: DIQMTQSPSSLSASVGDRVTITCRASENIYRTLAWYQQKPGKAPKLLIYGATTLADGVPSRFSGSGSGTDFTLTISSLQPEDFATYYCQHFWGTPWTFGQGTKVEIK
notes: human constant region
B2: CD81K13 HC 5b-hVH_1_69 / LC 04-hVK_1_9 (antibody, V domains shown)
VH: QVQLVQSGAELVKPGSSVKVSCKASGFNFKDSYLHWVRQAPGQGLEWMGRIDTGNGNVKFDPKFQGRVTITTDESTSTAYMELSSLRSEDTAVYYCVPYGYGFHSWGQGTLVTVSS
VL: DIQLTQSPSFLSASVGDRVTITCRASENIYRTLAWYQQKPGKAPKLLIYAATTLASGVPSRFSGSGSGTEFTLTISSLQPEDFGTYYCQHFWGTPWTFGQGTKVEIK
notes: human constant region
B3: CD81K13 HC 5b-hVH_1_69-GA / LC 07-hVK_1_27 (antibody, V domains shown)
VH: QVQLVQSGAELVKPGSSVKVSCKASGFNFKDSYLHWVRQAPGQGLEWMGRIDTGNGNVKFDPKFQGRVTITTDESTSTAYMELSSLRSEDTAVYYCVPYGYGFHSWGQGTLVTVSS
VL: DIQMTQSPSSLSASVGDRVTITCRASENIYRTLAWYQQKPGKVPKLLIYAATTLASGVPSRFSGSGSGTDFTLTISSLQPEDVGTYYCQKFWGTPWTFGQGTKVEIK
notes: human constant region
B4: CD81K13 HC 5b-hVH_1_69 / LC 05-hVK_1_39 (antibody, V domains shown)
VH: QVQLVQSGAELVKPGSSVKVSCKASGFNFKDSYLHWVRQAPGQGLEWMGRIDTGNGNVKFDPKFQGRVTITTDESTSTAYMELSSLRSEDTAVYYCVPYGYGFHSWGQGTLVTVSS
VL: DIQMTQSPSSLSASVGDRVTITCRASENIYRTLAWYQQKPGKAPKLLIYAATTLASGVPSRFSGSGSGTDFTLTISSLQPEDFATYYCQHFWGTPWTFGQGTKVEIK
notes: human constant region
B5: CD81K13 HC 5b-hVH_1_69 / LC 5b-hVK_1_39 (antibody, V domains shown)
VH: QVQLVQSGAELVKPGSSVKVSCKASGFNFKDSYLHWVRQAPGQGLEWMGRIDTGNGNVKFDPKFQGRVTITTDESTSTAYMELSSLRSEDTAVYYCVPYGYGFHSWGQGTLVTVSS
VL: DIQMTQSPSSLSASVGDRVTITCRASENIYRTLAWYQQKPGKAPKLLIYGATTLADGVPSRFSGSGSGTDFTLTISSLQPEDFATYYCQHFWGTPWTFGQGTKVEIK
notes: human constant region
B6: CD81K13 HC 5b-hVH_1_69-GA / LC 03-hVK_1_9 (antibody, V domains shown)
VH: QVQLVQSGAELVKPGSSVKVSCKASGFNFKDSYLHWVRQAPGQGLEWMGRIDTGNGNVKFDPKFQGRVTITTDESTSTAYMELSSLRSEDTAVYYCVPYGYGFHSWGQGTLVTVSS
VL: DIQLTQSPSFLSASVGDRVTITCRASENIYRTLAWYQQKPGKAPKLLIYAATTLASGVPSRFSGSGSGTEFTLTISSLQPEDFATYYCQHFWGTPWTFGQGTKVEIK
notes: human constant region
B7: CD81K13 HC 05-hVH_1_69 / LC 06-hVK_1_39 (antibody, V domains shown)
VH: QVQLVQSGAEVKKPGSSVKVSCKASGFNFKDSYLHWVRQAPGQGLEWMGRIDTGNGNVKFDPKFQGRVTITTDESTSTAYMELSSLRSEDTAVYYCVPYGYGFHSWGQGTLVTVSS
VL: DIQMTQSPSSLSASVGDRVTITCRASENIYRTLAWYQQKPGKAPKLLIYAATTLASGVPSRFSGSGSGTDFTLTISSLQPEDFGTYYCQHFWGTPWTFGQGTKVEIK
notes: human constant region
B8: CD81K13 HC 5b-hVH_1_69-GA / LC 06-hVK_1_39 (antibody, V domains shown)
VH: QVQLVQSGAELVKPGSSVKVSCKASGFNFKDSYLHWVRQAPGQGLEWMGRIDTGNGNVKFDPKFQGRVTITTDESTSTAYMELSSLRSEDTAVYYCVPYGYGFHSWGQGTLVTVSS
VL: DIQMTQSPSSLSASVGDRVTITCRASENIYRTLAWYQQKPGKAPKLLIYAATTLASGVPSRFSGSGSGTDFTLTISSLQPEDFGTYYCQHFWGTPWTFGQGTKVEIK
notes: human constant region
B9: CD81K13 HC 05-hVH_1_69 / LC 5b-hVK_1_39-GA (antibody, V domains shown)
VH: QVQLVQSGAEVKKPGSSVKVSCKASGFNFKDSYLHWVRQAPGQGLEWMGRIDTGNGNVKFDPKFQGRVTITTDESTSTAYMELSSLRSEDTAVYYCVPYGYGFHSWGQGTLVTVSS
VL: DIQMTQSPSSLSASVGDRVTITCRASENIYRTLAWYQQKPGKAPKLLIYGATTLADGVPSRFSGSGSGTDFTLTISSLQPEDFATYYCQHFWGTPWTFGQGTKVEIK
notes: human constant region
B10: CD81K13 HC 06-hVH_1_3 / LC 03-hVK_1_9 (antibody, V domains shown)
VH: QVQLVQSGAEVKKPGASVKVSCKASGYTFKDSYLHWVRQAPGQRLEWMGRIDTGNGNVKFDPKFQGRVTITTDTSASTAYMELSSLRSEDTAVYYCAPYGYGFHSWGQGTLVTVSS
VL: DIQLTQSPSFLSASVGDRVTITCRASENIYRTLAWYQQKPGKAPKLLIYAATTLASGVPSRFSGSGSGTEFTLTISSLQPEDFATYYCQHFWGTPWTFGQGTKVEIK
notes: human constant region
B11: CD81K13 HC 5b-hVH_1_69 / LC 5b-hVK_1_39-GA (antibody, V domains shown)
VH: QVQLVQSGAELVKPGSSVKVSCKASGFNFKDSYLHWVRQAPGQGLEWMGRIDTGNGNVKFDPKFQGRVTITTDESTSTAYMELSSLRSEDTAVYYCVPYGYGFHSWGQGTLVTVSS
VL: DIQMTQSPSSLSASVGDRVTITCRASENIYRTLAWYQQKPGKAPKLLIYGATTLADGVPSRFSGSGSGTDFTLTISSLQPEDFATYYCQHFWGTPWTFGQGTKVEIK
notes: human constant region
B12: CD81K13 HC 5b-hVH_1_69 / LC 03-hVK_1_9 (antibody, V domains shown)
VH: QVQLVQSGAELVKPGSSVKVSCKASGFNFKDSYLHWVRQAPGQGLEWMGRIDTGNGNVKFDPKFQGRVTITTDESTSTAYMELSSLRSEDTAVYYCVPYGYGFHSWGQGTLVTVSS
VL: DIQLTQSPSFLSASVGDRVTITCRASENIYRTLAWYQQKPGKAPKLLIYAATTLASGVPSRFSGSGSGTEFTLTISSLQPEDFATYYCQHFWGTPWTFGQGTKVEIK
notes: human constant region
B13: CD81K13 HC 5b-hVH_1_69-GA / LC 05-hVK_1_39 (antibody, V domains shown)
VH: QVQLVQSGAELVKPGSSVKVSCKASGFNFKDSYLHWVRQAPGQGLEWMGRIDTGNGNVKFDPKFQGRVTITTDESTSTAYMELSSLRSEDTAVYYCVPYGYGFHSWGQGTLVTVSS
VL: DIQMTQSPSSLSASVGDRVTITCRASENIYRTLAWYQQKPGKAPKLLIYAATTLASGVPSRFSGSGSGTDFTLTISSLQPEDFATYYCQHFWGTPWTFGQGTKVEIK
notes: human constant region
B14: CD81K13 HC 5b-hVH_1_69-GA / LC 5b-hVK_1_39 (antibody, V domains shown)
VH: QVQLVQSGAELVKPGSSVKVSCKASGFNFKDSYLHWVRQAPGQGLEWMGRIDTGNGNVKFDPKFQGRVTITTDESTSTAYMELSSLRSEDTAVYYCVPYGYGFHSWGQGTLVTVSS
VL: DIQMTQSPSSLSASVGDRVTITCRASENIYRTLAWYQQKPGKAPKLLIYGATTLADGVPSRFSGSGSGTDFTLTISSLQPEDFATYYCQHFWGTPWTFGQGTKVEIK
notes: human constant region
B15: CD81K13 HC 5b-hVH_1_69 / LC 06-hVK_1_39 (antibody, V domains shown)
VH: QVQLVQSGAELVKPGSSVKVSCKASGFNFKDSYLHWVRQAPGQGLEWMGRIDTGNGNVKFDPKFQGRVTITTDESTSTAYMELSSLRSEDTAVYYCVPYGYGFHSWGQGTLVTVSS
VL: DIQMTQSPSSLSASVGDRVTITCRASENIYRTLAWYQQKPGKAPKLLIYAATTLASGVPSRFSGSGSGTDFTLTISSLQPEDFGTYYCQHFWGTPWTFGQGTKVEIK
notes: human constant region
B16: CD81K13 HC 5b-hVH_1_69 / LC 07-hVK_1_27 (antibody, V domains shown)
VH: QVQLVQSGAELVKPGSSVKVSCKASGFNFKDSYLHWVRQAPGQGLEWMGRIDTGNGNVKFDPKFQGRVTITTDESTSTAYMELSSLRSEDTAVYYCVPYGYGFHSWGQGTLVTVSS
VL: DIQMTQSPSSLSASVGDRVTITCRASENIYRTLAWYQQKPGKVPKLLIYAATTLASGVPSRFSGSGSGTDFTLTISSLQPEDVGTYYCQKFWGTPWTFGQGTKVEIK
notes: human constant region
B17: CD81K13 HC 06-hVH_1_3 / LC 04-hVK_1_9 (antibody, V domains shown)
VH: QVQLVQSGAEVKKPGASVKVSCKASGYTFKDSYLHWVRQAPGQRLEWMGRIDTGNGNVKFDPKFQGRVTITTDTSASTAYMELSSLRSEDTAVYYCAPYGYGFHSWGQGTLVTVSS
VL: DIQLTQSPSFLSASVGDRVTITCRASENIYRTLAWYQQKPGKAPKLLIYAATTLASGVPSRFSGSGSGTEFTLTISSLQPEDFGTYYCQHFWGTPWTFGQGTKVEIK
notes: human constant region
B18: CD81K13 HC 5b-hVH_1_69-GA / LC 04-hVK_1_9 (antibody, V domains shown)
VH: QVQLVQSGAELVKPGSSVKVSCKASGFNFKDSYLHWVRQAPGQGLEWMGRIDTGNGNVKFDPKFQGRVTITTDESTSTAYMELSSLRSEDTAVYYCVPYGYGFHSWGQGTLVTVSS
VL: DIQLTQSPSFLSASVGDRVTITCRASENIYRTLAWYQQKPGKAPKLLIYAATTLASGVPSRFSGSGSGTEFTLTISSLQPEDFGTYYCQHFWGTPWTFGQGTKVEIK
notes: human constant region
B19: CD81K13 HC 06-hVH_1_3 / LC 05-hVK_1_39 (antibody, V domains shown)
VH: QVQLVQSGAEVKKPGASVKVSCKASGYTFKDSYLHWVRQAPGQRLEWMGRIDTGNGNVKFDPKFQGRVTITTDTSASTAYMELSSLRSEDTAVYYCAPYGYGFHSWGQGTLVTVSS
VL: DIQMTQSPSSLSASVGDRVTITCRASENIYRTLAWYQQKPGKAPKLLIYAATTLASGVPSRFSGSGSGTDFTLTISSLQPEDFATYYCQHFWGTPWTFGQGTKVEIK
notes: human constant region
B20: CD81K13 HC 06-hVH_1_3 / LC 5b-hVK_1_39 (antibody, V domains shown)
VH: QVQLVQSGAEVKKPGASVKVSCKASGYTFKDSYLHWVRQAPGQRLEWMGRIDTGNGNVKFDPKFQGRVTITTDTSASTAYMELSSLRSEDTAVYYCAPYGYGFHSWGQGTLVTVSS
VL: DIQMTQSPSSLSASVGDRVTITCRASENIYRTLAWYQQKPGKAPKLLIYGATTLADGVPSRFSGSGSGTDFTLTISSLQPEDFATYYCQHFWGTPWTFGQGTKVEIK
notes: human constant region
B21: CD81K13 HC 5b-hVH_1_69-GA / LC 5b-hVK_1_39-GA (antibody, V domains shown)
VH: QVQLVQSGAELVKPGSSVKVSCKASGFNFKDSYLHWVRQAPGQGLEWMGRIDTGNGNVKFDPKFQGRVTITTDESTSTAYMELSSLRSEDTAVYYCVPYGYGFHSWGQGTLVTVSS
VL: DIQMTQSPSSLSASVGDRVTITCRASENIYRTLAWYQQKPGKAPKLLIYGATTLADGVPSRFSGSGSGTDFTLTISSLQPEDFATYYCQHFWGTPWTFGQGTKVEIK
notes: human constant region

What follows are binders tested against T1, CD81 (assay: cell ELISA;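 note: antibody binding to HuH7 cells expressing CD81 versus a CD81-negative HuH7 control line, bound antibody detected by secondary reagent, absorbance at 450 nm with 620 nm reference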).
Protocol: For the binding cell ELISA assay, HuH7-Rluc-H3 (positive cell line expressing CD81) and HuH7-Rluc-L1 (negative control cell line) were propagated in F-12 DMEM medium with 10% FCS at 37° C. and 5% CO₂. On day 1, the cells were trypsinized at approximately 90% confluence and resuspended at 4×10⁵ cells/mL. […] On day 2, the antibody samples to be tested were prepared in a separate polypropylene round bottom plate with a twofold desired concentration with a final volume of 120 μl. All of the assay samples were diluted in cell culture medium. […] After fixation, each well was washed 3 times with 200 μL PBS/0.05% Tween. The secondary incubation step for detection of bound anti-CD81 antibodies was performed for 2 h at room temperature on a reciprocal shaker. […] Each well was washed three times with 200 μL PBS/0.05% Tween to remove unbound antibodies. […] The absorbance was read using the ELISA Tecan reader at 450 nm with 620 nm reference wavelength.

Binder | ELISA data
B1 | 0.692
B2 | 0.695
B3 | 0.11
B4 | 0.905
B5 | 0.463
B6 | 0.788
B7 | 0.603
B8 | 0.528
B9 | 0.551
B10 | 0.352
B11 | 0.646
B12 | 0.73
B13 | 0.858
B14 | 0.737
B15 | 0.522
B16 | 0.114
B17 | 0.371
B18 | 0.786
B19 | 0.315
B20 | 0.388
B21 | 0.684
